For experiment [1], the target named is DS-Cav1-His6 (respiratory syncytial virus subtype A, strain A2 | not stated) (UniProt P03420). Description: cross-linking.
Experiment [2] has the same target. Description: negative-stain EM.
Experiment [3] shares this target. Description: SEC. On the technique in general: Size exclusion chromatography separates by hydrodynamic size, large species first.
In experiment [4] the target is sc9-10 DS-Cav1 (respiratory syncytial virus subtype A, strain A2 | not stated) (UniProt P03420). Description: SEC.
The target of experiment [5] is DS-Cav1 (respiratory syncytial virus subtype A, strain A2 | not stated) (UniProt P03420). Description: SEC.
Experiment [6] has as its target sc9-10 DS-Cav1-His6 (respiratory syncytial virus subtype A, strain A2 | not stated) (UniProt P03420). Description: cross-linking.
Experiment [7] has the same target. Description: SEC.
Experiment [8] has as its target SC-TM-His6 (respiratory syncytial virus subtype A, strain A2 | not stated) (UniProt P03420). Description: cross-linking.
For experiment [9] the target is unchanged. Description: SEC.
In another experiment the target is T1, sc9-10 DS-Cav1 (Human respiratory syncytial virus A, …, S215P | A149C | Y458C | S46G | K465Q).
T1 chain: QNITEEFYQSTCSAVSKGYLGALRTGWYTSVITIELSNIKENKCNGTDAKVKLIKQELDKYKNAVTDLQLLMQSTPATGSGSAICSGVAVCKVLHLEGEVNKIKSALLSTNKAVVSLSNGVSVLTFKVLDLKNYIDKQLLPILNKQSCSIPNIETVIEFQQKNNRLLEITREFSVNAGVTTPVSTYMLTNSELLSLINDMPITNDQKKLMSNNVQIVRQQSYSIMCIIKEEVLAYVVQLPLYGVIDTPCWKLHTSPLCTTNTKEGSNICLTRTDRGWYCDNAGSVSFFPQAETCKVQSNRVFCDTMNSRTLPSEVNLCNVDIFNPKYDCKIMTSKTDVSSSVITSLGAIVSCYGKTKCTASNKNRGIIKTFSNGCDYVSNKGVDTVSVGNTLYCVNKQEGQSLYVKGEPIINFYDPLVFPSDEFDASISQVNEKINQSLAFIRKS
Description: cell-based or functional assay.

The target of a further experiment is 847A-His6 (human respiratory syncytial virus A, …, UniProt A0A7D5GVC1, I148C | D486S). Description: ELISA. A general note: ELISA stands for enzyme-linked immunosorbent assay.
For the next experiment, the target named is UFCM1-P2 (human metapneumovirus, Q1A2Z0 …, UniProt Q1A2Z0, E80D | T127C | N153C | A185P | V155P). Description: ELISA.
The next experiment addresses UFCM1 (human metapneumovirus, Q1A2Z0 …, UniProt Q1A2Z0, E80D | T127C | N153C | A185P). Description: ELISA.
The next experiment has as its target T2, UFCM1-P2-iSS (Human metapneumovirus, strain NL/1/00 …, stabilised).
T2 chain: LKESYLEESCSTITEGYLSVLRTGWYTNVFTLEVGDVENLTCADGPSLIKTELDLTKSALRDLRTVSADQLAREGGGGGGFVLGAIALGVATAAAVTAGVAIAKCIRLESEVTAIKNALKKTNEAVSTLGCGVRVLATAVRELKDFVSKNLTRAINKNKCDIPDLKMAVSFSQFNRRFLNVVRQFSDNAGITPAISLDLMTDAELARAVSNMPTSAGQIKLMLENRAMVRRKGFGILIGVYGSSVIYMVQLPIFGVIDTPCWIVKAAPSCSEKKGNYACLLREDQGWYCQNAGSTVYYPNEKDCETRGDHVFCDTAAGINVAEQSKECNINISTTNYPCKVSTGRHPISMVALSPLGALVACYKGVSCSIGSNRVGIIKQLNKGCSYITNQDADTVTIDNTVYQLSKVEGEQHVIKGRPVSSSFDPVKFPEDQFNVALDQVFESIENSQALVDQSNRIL
Description: negative-stain EM.

From paper PMC11569192 (Nature Communications, 2024) come the findings set out here.

Broadly, the stoichiometry N is a count of units in the complex or per binding partner.

Turning to “DS-Cav1-His6 (from UniProt P03420 137-513) (domain or fragment)”, the stoichiometry N in experiment [1], in experiment [2] and in experiment [3] was 3 each time.
“sc9-10 DS-Cav1 (from UniProt P03420 26-513) (domain or fragment)” came in with a stoichiometry N in experiment [4] of 3.
In turn, “DS-Cav1 (from UniProt P03420 137-513) (domain or fragment)” gave a stoichiometry N in [5] of 3.
As for “sc9-10 DS-Cav1-His6 (from UniProt P03420 26-513) (domain or fragment)”, the stoichiometry N in experiment [6] and in experiment [7] was 3 throughout.
Take “SC-TM-His6 (from UniProt P03420 26-513) (domain or fragment)”: the stoichiometry N in experiment [8] and in [9] was 3 throughout.

B1: A4 scFv-Fc (scFv, V domains shown)
VH: EVQLVESGGGLVQPGGSLRLSCAASGFTFTTYAMHWVRQSPGKGLEWLASISYDGTSQYYAESVKGRFTVSRDNSKKTLLLQVNSLRPEDTAVYYCAGSPSGHYSWLGYFYAMDVWGQGTLVTVSS
VL: QSALTQPASVSGSPGQSITISCTGASSDVGGYDYVSWYQQHPGKAPKLLIYDVSDRPSGVSNRFSGSKSGNTASLTISGLQTEDEADYYCSSYTSKNTLIFGGGTKLTVL
As to B1, the “live RSV (RSV-A2-GFP) neutralization, IC50, scFv-Fc form” value in the experiment with sc9-10 DS-Cav1 is 2.1 ng/mL.

B2: MPE8 IgG (antibody, V domains shown)
VH: EVQLVESGGGLVKPGGSLRLSCAASGFTFSSYSMNWVRQAPGKGLEWVSSISASSSYSDYADSAKGRFTISRDNAKTSLFLQMNSLRAEDTAIYFCARARATGYSSITPYFDIWGQGTLVTVSS
VL: QSVVTQTPSVSGAPGQRVTISCTGSSSNIGAGYDVHWYQQLPGTAPKLLIYDNNNRPSGVPDRFSASKSGTSASLAITGLQAEDEADYYCQSYDRNLSGVFGTGTKVTVL
For the molecule B2, the binding result in the experiment with 847A-His6, with UFCM1-P2 and with UFCM1 was “binds” in each case.

B3: MPE8 Fab (Fab, V domains shown)
VH: EVQLVESGGGLVKPGGSLRLSCAASGFTFSSYSMNWVRQAPGKGLEWVSSISASSSYSDYADSAKGRFTISRDNAKTSLFLQMNSLRAEDTAIYFCARARATGYSSITPYFDIWGQGTLVTVSS
VL: QSVVTQTPSVSGAPGQRVTISCTGSSSNIGAGYDVHWYQQLPGTAPKLLIYDNNNRPSGVPDRFSASKSGTSASLAITGLQAEDEADYYCQSYDRNLSGVFGTGTKVTVL
For B3, the “stoichiometry N” value with UFCM1-P2-iSS is 3 Fabs per trimer.
